Results reported in PMC9486540.

Target: C5b6 (UniProt P13671)
Assay: BLI; as a1, but 100nM C7 pre-incubated with anti-C7 mAb TPP1653 (200nM or 2nM) before dipping the C5b6 sensors, then C8 and C9

For “human complement C7 (from UniProt P10643 23-843) (natural protein)”, the binding response, percent of max response in controls (with 200nM TPP1653) (% of max response in controls) was 60.
